The source of these data is patent US20190185568A1 (FUSO PHARMACEUTICAL INDUSTRIES, published 2019).

The target in test [1] is T1, bovine FcγRI-His (soluble extracellular region with 6xHis tag) (bovine).
T1 construct: extracellular domain; also called boFcγRI-His; not shown: limits not st
The test can be described thus: ELISA: antibody immobilized at 1.56 to 50 nM, bovine FcγRI-His added at 10 µg/ml, anti-polyhistidine detection [A]. The method, then: (§1) Subsequently, each well was washed with […] of 0.05% Tween 20-supplemented PBS (PBS-T) five times, followed by blocking with SuperBlock (PBS) Blocking Buffer (Thermo Fisher Scientific) at 37° C. for 30 min, Each well was washed again in the same manner. Then, bovine FcγRI-His, FcγRII-His, FcγRIII-His or Fcγ2R-His was added to each well at a final concentration of 10 μg/ml and reacted at 37° C. for 1 hr. After washing, anti-polyhistidine tag mouse monoclonal antibody (Abeam) was reacted at 37° C. for 30 min. Subsequently, each well was washed, and horseradish peroxidase-labeled anti-mouse IgG goat polyclonal antibody (MP Biomedicals) was reacted at 37° C. for 30 min. Each well was washed again, and then TMB One Component Substrate (Bethyl) was added for coloring. Thereafter, the enzyme reaction was terminated with 0.18 M dilute sulfuric acid, and absorbance (450 nm) was measured with Microplate Reader MTP-900 (Corona Electric), For every plate washing operation, Auto Plate Washer BIO WASHER 50 (DS Pharma Biomedical) was used.
For orientation: An ELISA detects its analyte on a solid surface through an enzyme-linked reagent.

Test [2] deals with T2, bovine FcγRII-His (soluble extracellular region with 6xHis tag) (bovine, UniProt Q28110 43-225).
T2 construct: extracellular domain; also called boFcγRII-His
T2 sequence: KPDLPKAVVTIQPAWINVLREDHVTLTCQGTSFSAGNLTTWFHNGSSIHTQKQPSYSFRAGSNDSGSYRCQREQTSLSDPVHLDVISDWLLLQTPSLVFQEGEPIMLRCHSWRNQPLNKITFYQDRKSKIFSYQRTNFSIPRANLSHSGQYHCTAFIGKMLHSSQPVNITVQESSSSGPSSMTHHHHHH
The test can be described thus: ELISA: antibody immobilized at 1.56 to 50 nM, bovine FcγRII-His added at 10 µg/ml, anti-polyhistidine detection [B]. The protocol: as §1

For test [3], the target named is T3, bovine PD-1-His (soluble bovine PD-1 extracellular region with 6xHis tag) (bovine).
T3 chain: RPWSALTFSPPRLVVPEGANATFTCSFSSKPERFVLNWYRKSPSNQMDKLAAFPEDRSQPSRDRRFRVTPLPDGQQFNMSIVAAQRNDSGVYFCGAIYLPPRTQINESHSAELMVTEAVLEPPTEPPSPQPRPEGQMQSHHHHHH
The test can be described thus: SPR (Biacore X100), bovine PD-1-His immobilized on CM5 chip, antibody as analyte, single kinetics, n=3. The protocol:
The binding avidities to bovine PD-1 of rat anti-bovine PD-1 antibody 5D2 and rat-bovine chimeric anti-bovine PD-1 antibody ch5D2 were measured by surface plasmon resonance using a bimolecular interaction analyzer (Biacore X100). Briefly, bovine PD-1-His (described above) was immobilized on a CM5 sensor chip (GE Healthcare) as a ligand. Subsequently, rat anti-bovine PD-1 antibody 5D2 or rat-bovine chimeric anti-bovine PD-1 antibody ch5D2 was reacted as an analyte, followed by single kinetics analysis. The experiment was repeated 3 times under the same conditions. Binding constant (kd value) and dissociation constant (ka value) were determined in each experiment, and binding avidity (KD value) was obtained.

B1: rat-bovine chimeric anti-bovine PD-1 antibody ch5D2 having wild-type bovine IgG1 (IgG1 WT) (antibody)
heavy: QVQLKETGPGLVQPTQTLSITCTVSGFSLTSYYIQWVRQTPGKGLEWMGFIRSGGSTEYNSEFKSRLSINRDTSKNQVFLKMNSLKTEDTGVYYCARTSSGYEGGFDYWGQGVMVTVSSASTTAPKVYPLSSCCGDKSSSTVTLGCLVSSYMPEPVTVTWNSGALKSGVHTFPAVLQSSGLYSLSSMVTVPGSTSGQTFTCNVAHPASSTKVDKAVDPTCKPSPCDCCPPPELPGGPSVFIFPPKPKDTLTISGTPEVTCVVVDVGHDDPEVKFSWFVDDVEVNTATTKPREEQFNSTYRVVSALRIQHQDWTGGKEFKCKVHNEGLPAPIVRTISRTKGPAREPQVYVLAPPQEELSKSTVSLTCMVTSFYPDYIAVEWQRNGQPESEDKYGTTPPQLDADSSYFLYSKLRVDRNSWQEGDTYTCVVMHEALHNHYTQKSTSKSAGK
light: DVVLTQTPVSLSVTLGDQASISCRSSQSLEYSDGYTYLEWYLQKPGQSPQLLIYGVSNRFSGVPDRFIGSGSGTDFTLKISRVEPEDLGVYYCFQATHDPDTFGAGTKLELKQPKSPPSVTLFPPSTEELNGNKATLVCLISDFYPGSVTVVWKADGSTITRNVETTRASKQSNSKYAASSYLSLTSSDWKSKGSYSCEVTHEGSTVTKTVKPSECS
notes: also called ch5D2 IgG1 WT
On to B1, for which the “EC50 (read off the curve)” value in test [1] is roughly 9 nM. Moreover, in test [2], the binding result is on record as “binds”.

B2: rat-bovine chimeric anti-bovine PD-1 antibody ch5D2 (mutated bovine IgG1, IgG1 ADCC-) (antibody)
heavy: QVQLKETGPGLVQPTQTLSITCTVSGFSLTSYYIQWVRQTPGKGLEWMGFIRSGGSTEYNSEFKSRLSINRDTSKNQVFLKMNSLKTEDTGVYYCARTSSGYEGGFDYWGQGVMVTVSSASTTAPKVYPLSSCCGDKSSSTVTLGCLVSSYMPEPVTVTWNSGALKSGVHTFPAVLQSSGLYSLSSMVTVPGSTSGQTFTCNVAHPASSTKVDKAVDPTCKPSPCDCCPPPPVAGPSVFIFPPKPKDTLTISGTPEVTCVVVDVGHDDPEVKFSWFVDDVEVNTATTKPREEQFNSTYRVVSALRIQHQDWTGGKEFKCKVHNEGLPSSIVRTISRTKGPAREPQVYVLAPPQEELSKSTVSLTCMVTSFYPDYIAVEWQRNGQPESEDKYGTTPPQLDADSSYFLYSKLRVDRNSWQEGDTYTCVVMHEALHNHYTQKSTSKSAGK
light: B1 light
notes: Rat 5D2 variable regions on bovine IgG1 (modified from GenBank X62916) and bovine Ig lambda (X62917); also called ch5D2 IgG1 ADCC-
In test [3], B2 showed a Kd of 10.5 nM, a koff of 0.000216 s⁻¹ and a kon of 20700 M⁻¹ s⁻¹. Moreover, the binding result in test [2] is on record as “no binding (tested: 50 nM)”.

B3: rat anti-bovine PD-1 monoclonal antibody 5D2 (antibody, V domains shown)
VH: QVQLKETGPGLVQPTQTLSITCTVSGFSLTSYYIQWVRQTPGKGLEWMGFIRSGGSTEYNSEFKSRLSINRDTSKNQVFLKMNSLKTEDTGVYYCARTSSGYEGGFDYWGQGVMVTVSS
VL: DVVLTQTPVSLSVTLGDQASISCRSSQSLEYSDGYTYLEWYLQKPGQSPQLLIYGVSNRFSGVPDRFIGSGSGTDFTLKISRVEPEDLGVYYCFQATHDPDTFGAGTKLELK
notes: Rat monoclonal antibody from a hybridoma; Rat IgG2a (kappa) was used as its isotype control; also called rat anti-bovine PD-1 antibody 5D2
For the molecule B3, in test [3], the Kd amounted to 12.2 nM, the koff was 0.000215 s⁻¹ and the kon was 18400 M⁻¹ s⁻¹.

One may read the EC50 (read off the curve) as the concentration that produces a half-maximal response. High values mean lower potency in that assay, low ones higher potency in that assay. Broadly, the Kd is the concentration at which binding is half-saturated. Higher therefore signals lower affinity. One may read the koff as the rate constant with which the complex falls apart. Low values mean slow dissociation, high ones fast dissociation. In general, kon refers to the second-order rate constant of association. A higher kon goes with faster complex formation.
